This data set in a line: yeast display, Sf9 membrane polyspecificity reagent, FACS + sequencing; frameworks hold sequencing errors. In a few lines:
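In a synthetic yeast display library (Saccharomyces cerevisiae BJ5465), nanobody expression was induced with galactose for 36–48 hours. FACS gates were set low and high (top ~1%) using anti-HA fluorescence for expression and streptavidin fluorescence for binding of the Sf9 membrane reagent. Each polyreactivity label is drawn from the gate of origin.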
“QVQLVESGGGLVQAGGSLRLSCAASGITFKSYAMGWYRQAPGKERELVAAIARRGGSTYYADSVKGRFTISRDNAKNTVYLQMNSLKPEDTAVYYCAADSGREPKGPSRLTYWGQGTQVTVSS”: the “polyreactivity (PSR sort gate)” value is given as “high polyreactivity”.

With “QVQLVESGGGLVQAGGSLRLSCAASGITFKSYAMGWYRQAPGKERELVAAISRRGGSTYYADSVKGRFTISRDNAKNTVYLQMNSLKPEDTAVYYCAADSGREPKGPSRLTYWGQGTQVTVSS”, the “polyreactivity (PSR sort gate)” value is “high polyreactivity”.

For the sequence “QVQLVESGGGLVQAGGSLRLSCAASGITFKWYAMGWYRQAPGKERELVAAISWSTGSTYYADSVKGRFTISRDNAKNTVYLPMNSLKPEDTAVYYCAARVKRPQTGYDRRYGYWGQGTQVTVSS”, the “polyreactivity (PSR sort gate)” value is on record as “high polyreactivity”.

As for “QVQLVESGGGLVQAGGSLRLSCAASGITFKYNAMGWYRPAPGKERELVAAISSGGNTYYADSVKGRFTISRDNAKNTVYLQMNSLKPEDTAVYYCAAPSYDTLWHDYWGQGTQVTVSS”, the “polyreactivity (PSR sort gate)” value is listed as “low polyreactivity”.

As to “QVQLVESGGGLVQAGGSLRLSCAASGITFKYYAMGWYRQAPGKERELVAAITRGGSTYYADSVKGRFTISRDNAKNTVYLQMNSLKPEDTAVYYCNKARTYELYWGQGTQVTVSS”, the “polyreactivity (PSR sort gate)” value is “high polyreactivity”.

Take “QVQLVESGGGLVQAGGSLRLSCAASGITFKYYVMGWYRQAPGKEREFVAAISWGGGSTYYADSVKGRFTISRDNAKNTVYLQMNSLKPEDTAVYYCAARKGYYTHVQIGYRQSMDYWGQGTQVTVSS”: the “polyreactivity (PSR sort gate)” value is listed as “high polyreactivity”.

Regarding “QVQLVESGGGLVQAGGSLRLSCAASGITFLDYTMGWYRQAPGKERELVATISKSGGSTYYADSVKGRFTISRDNAKNTVYLQMNSLKPEDTAVYYCAARGFTFWRYYYWGQGTQVTVSS”, the “polyreactivity (PSR sort gate)” value was “high polyreactivity”.

Consider “QVQLVESGGGLVQAGGSLRLSCAASGITFLFYAMGWYRQAPGKERELVAAISRSGGSTYYADSVKGRFTISRDNAKNTVYLQMNSLKPEDTAVYYCAARSKDGGGPMYYWGQGTQVTVSS”, for which the “polyreactivity (PSR sort gate)” value is “high polyreactivity”.

Take “QVQLVESGGGLVQAGGSLRLSCAASGITFLPYAMGWYRQAPGKERELVAAISWRGGRTYYADSVKGRFTISRDNAKNTVYLQMNSLKPEDTAVYYCAAVLVRKSGITYDYWGQGTQVTVSS”: the “polyreactivity (PSR sort gate)” value is given as “high polyreactivity”.

In the case of “QVQLVESGGGLVQAGGSLRLSCAASGITFNGYTMGWYRQAPGKEREFVAAITRRGGSTYYADSVKGRFTISRDNAKNTVYLQMNSLKPEDTAVYYCARVTRLGGGDYDYWGQGTQVTVSS”, the “polyreactivity (PSR sort gate)” value is given as “high polyreactivity”.

On to “QVQLVESGGGLVQAGGSLRLSCAASGITFNIYVMGWYRQAPGKERELVAAITDSGGTTYYADSVKGRFTISRDNAKNTVYLQMNSLKPEDTAVYYCAAEPFYSWWWWGDYWGQGTQVTVSS”, for which the “polyreactivity (PSR sort gate)” value is on record as “high polyreactivity”.

With “QVQLVESGGGLVQAGGSLRLSCAASGITFNKNAMGWYRQAPGKEREFVAAITRRGGSTYYADSVKGRFTISRDNAKNTVYLQMNSLKPEDTAVYYCAARPYWSYRRYDYWGQGTQVTVSS”, the “polyreactivity (PSR sort gate)” value is “high polyreactivity”.

As to “QVQLVESGGGLVQAGGSLRLSCAASGITFNPYVMGWYRQAPGTERELVAVITSGGSTNYADSVKGRFTISRDNAKNTVYLQMNSLKPEDTAVYYCNVDRRPYYVWRVTYDYWGQGTQVTVSS”, the “polyreactivity (PSR sort gate)” value is reported as “low polyreactivity”.

In the case of “QVQLVESGGGLVQAGGSLRLSCAASGITFNSYTMGWYRQAPGKERELVAAISDNGGRTFYADSVKGRFTISRDNAKNTVYLQMNSLKPEDTAVYYCAAVVYSEYYYWGQGTQVTVSS”, the “polyreactivity (PSR sort gate)” value is on record as “low polyreactivity”.

Regarding “QVQLVESGGGLVQAGGSLRLSCAASGITFNYYAKGSYRQAPGKERELVATINRSGGTTYYADSVKGRFTISRDNAKNTVYLQMNSLKPAVTAVYYCGALSKTRGGYWGQGTQVTVSS”, the “polyreactivity (PSR sort gate)” value is “high polyreactivity”.

Take “QVQLVESGGGLVQAGGSLRLSCAASGITFPANARGWYRQAPGKERELVADISESDGSTYYADSVKGRFTISRDNAKNTVFLQMNSLKPEDTAVYYCAADGTSGTRSDYWGQCTQVTVSS”: the “polyreactivity (PSR sort gate)” value was “low polyreactivity”.

For the sequence “QVQLVESGGGLVQAGGSLRLSCAASGITFPGNAMGWYIQAPGKERELVAVISSGTSTNYADSVKGRFTISRDNAMNTVYLQMNSLKPEDTAVYYCATSLYYYPYYYWGQGTQVTVSS”, the “polyreactivity (PSR sort gate)” value is listed as “low polyreactivity”.

Take “QVQLVESGGGLVQAGGSLRLSCAASGITFPGTVMGWYRQAPGKERELVAAISTSGGSTYYADSVKGRFTISRDNAKNTVYLQMNSLKPEDTAVYYCARQYIRSSYGYWGQGTQVTVSS”: the “polyreactivity (PSR sort gate)” value was “low polyreactivity”.

With “QVQLVESGGGLVQAGGSLRLSCAASGITFPLYAMGWYRQAPGKETELVASITRGGTTNYADSVKGRFTISRDNAKNTVYLQMNRLKPEDTAVYYCAAEVTRDRGFDYWGQGTQVTVSS”, the “polyreactivity (PSR sort gate)” value is “low polyreactivity”.

Consider “QVQLVESGGGLVQAGGSLRLSCAASGITFPVYTMGWYRPAPVKERELVAAITSSGGSTYYADSVKGRFTISRDNAKNTVYLQMISLKQEDTAVYYCAARDYGRHHSYGYWGQGTQVTVSS”, for which the “polyreactivity (PSR sort gate)” value is given as “high polyreactivity”.

For the sequence “QVQLVESGGGLVQAGGSLRLSCAASGITFPVYTMGWYRQAPGKERALVAAISRSGGRTYYADSVKGRFTISSDNAKNTVYLQMNSLKPEDTAVYYCAVRQATVTGGGYWGQGTQVTVSS”, the “polyreactivity (PSR sort gate)” value was “high polyreactivity”.

For the sequence “QVQLVESGGGLVQAGGSLRLSCAASGITFPWYAMGWYIQAPGKERELVAAISFSGGSTYYADSVKWRFTISRDNAKNTVYLQMNCLKPVDTAVYYCAAVDGYSYIYAAGDYWGQGTQVTVSS”, the “polyreactivity (PSR sort gate)” value was “low polyreactivity”.

“QVQLVESGGGLVQAGGSLRLSCAASGITFPYNAMGWYRQAPGKERELVASINSGDSTNYADSVKGRFTISRDNAKNTVYLQMNSLKPEDTAVYYCAAADYWHYKYDYWGQGTQVTVSS”: the “polyreactivity (PSR sort gate)” value was “low polyreactivity”.

Consider “QVQLVESGGGLVQAGGSLRLSCAASGITFPYYAMGWYRQAPGKERELVAAITIRSGRTYYADSVKGRFTISRDNAKNTVYLQMNSLKPEDTAVYYCAARLSNTYGYWGQGTQVTVSS”, for which the “polyreactivity (PSR sort gate)” value was “high polyreactivity”.

Regarding “QVQLVESGGGLVQAGGSLRLSCAASGITFQGYTIGWYRQAPGKERELVAAISSNGGRTYYADSVKGRFTISRDNAKNTVYLQMNSLKPEDTAVYYCAARKWRLIVDYWGQGTQVTVSS”, the “polyreactivity (PSR sort gate)” value is recorded as “high polyreactivity”.

Take “QVQLVESGGGLVQAGGSLRLSCAASGITFQKYVMGWYRQAPGKEREFVAAITARGGTTYYADSVKGRFTISRDNAKNTVYLQMNSLKPEDTAVYYCAARSYYSGLAYYYWGQGTQVTVSS”: the “polyreactivity (PSR sort gate)” value was “high polyreactivity”.

Consider “QVQLVESGGGLVQAGGSLRLSCAASGITFQNYAMGWYRQAPGKERELVAAITGRGGSTYYADSVKGRFTISRDNAKHTVYLQMNSLKPEDTAVYYCATDRRGYRDDYWGQGTQVTVSS”, for which the “polyreactivity (PSR sort gate)” value is “high polyreactivity”.

Take “QVQLVESGGGLVQAGGSLRLSCAASGITFQRYAMGWYRQAPGKERELVAAISTNGGTTYYADSVKGRFTISRDNAKNTVYLQMNSLKPEDTAVYFCNAESGYVYYIRYNYWGQGTQVTVSS”: the “polyreactivity (PSR sort gate)” value is listed as “high polyreactivity”.

On to “QVQLVESGGGLVQAGGSLRLSCAASGITFQRYAMGWYRQAPGKVRELVAAITRRGGSTYYADSVKGRFTISRDNAKNTVYLQMNSLKPEDTAVYYCAADLFFKARGYDYWGQGTQVTVSS”, for which the “polyreactivity (PSR sort gate)” value is recorded as “high polyreactivity”.

In the case of “QVQLVESGGGLVQAGGSLRLSCAASGITFQWNAMGWYRQAPGKERELVAAISSGTSTYYADSVKGRFTISRDNAKNTVYLQMNSLKPEDTAVYYCNAVKSWGHPGRYYWGQGTQVTVSS”, the “polyreactivity (PSR sort gate)” value was “high polyreactivity”.

Source of the values: the nanobody polyreactivity screen of Harvey et al. (2022).
